This note sets out measurements from article PMC9426509.

The target of this assay is Echovirus 18 (E18) mature (full) virus particle, strain HeB15-254 (echovirus 18 (strain HeB15-254)). The assay can be described thus: SPR; Biacore 3000, 25 C; biotinylated full E18 particles in PBS with Tween immobilised on streptavidin (SA) chips; FcRn or CD55 flowed at 31.25 nM to 2,000 nM; pH 7.4; 1:1 binding model.

As for “soluble ectodomain of human neonatal Fc receptor (FcRn): FCGRT (A16-L282) with B2M (from UniProt P61769 21-119) (complex)”, the Kd was determined as 0.343 µM.
